Measured values published in paper PMC8650744.

Biological target: HIV-1 Matrix (MA) WT (HIV-1, UniProt C1JB69 1-131)
Test: ITC

B1: tRNALys3 A7U/U66A (structured_RNA)
RNA: GCCCGGUUAGCUCAGUCGGUAGAGCAUCAGACUUUUAAUCUGAGGGUCCAGGGUUCAAGUCCCUGAUCGGGCGCCA
B1 was tested, and the binding signal was 2 fold Kd increase vs WT tRNA.
